Laboratory results as given in the supplement of paper PMC7877785.
± gives the uncertainty stated by the source.

Experiment: self-splicing fitness, log relative to wild type (ln ratio); higher = more splicing; Tetrahymena group I intron in knt gene, E. coli kanamycin selection, DiMSum; sequences stand for … in CUCUCU…GGAGGGAAAAGUUAUCAGGCAUGCACCUGGUAGCUAGUCUUUAAACCAAUAGAUUGCAUCGGUUUAAAAGGCAAGACCGUCAAAUUGCGGGAAAGGGGUCAACAGCCGUUCAGUACCAAGUCUCAGGGGAAACUUUGAGAUGGCCUUGCAAAGGGUAUGGUAAUAAGCUGACGGACAUGGUCCUAACCACGCAGCCAAGUCCUAAGUCAACAGAUCUUCUGUUGAUAUGGAUGCAGUUCACAGACUAAAUGUCGGUCGGGGAAGAUGUAUUCUUCUCAUAAGAUAUAGUCGGACCUCUCCUUAAUGGGAGCUAGCGGAUGAAGUGAUGCAACACUGGAGCCGCUGGGAACUAAUUUGUAUGCGAAAGUAUAUUGAUUAGUUUUGGAGUACUCGUGGUCG
Summary of the method: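 DiMSum derived fitness as the error-weighted combination of fold changes across replicates, kanamycin versus no kanamycin, normalised to wild type. E. coli BL21(DE3) held the library, which randomised all eight P1ex-region intron nucleotides within the knt kanamycin-resistance gene on pET-22b(+). Six replicate transformations grew overnight at 37°C or 30°C on LB agar with or without 25 μg/mL kanamycin, also containing 100 μg/mL carbenicillin, 50 μM IPTG and 0.2% rhamnose, and pooled colonies were amplicon-sequenced on an Illumina HiSeq 2500.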

Row | Sequence | self-splicing fitness (ln) (30 °C) | self-splicing fitness (ln) (37 °C)
1 | CAAAAGCAAUAUUACGUCAG | -0.464 ± 0.062 | -0.392 ± 0.075
2 | UGUCAGCAAUAUUACGUAUG | -0.239 ± 0.063 | 0.657 ± 0.086
3 | CCUCAGCAAUAUUACGCUAA | -2.79 ± 0.14 | -3.05 ± 0.2
4 | UGACAGCAAUAUUACGCGUA | -0.95 ± 0.094 | -0.353 ± 0.089
5 | CGGUAGCAAUAUUACGUGGG | -3.79 ± 0.17 | -3.11 ± 0.14
6 | AUGAAGCAAUAUUACGCUGA | -1.2 ± 0.13 | -1.24 ± 0.17
7 | GGAAAGCAAUAUUACGGCAA | -0.443 ± 0.12 | -0.141 ± 0.11
8 | GCUAAGCAAUAUUACGUUCC | -1.14 ± 0.087 | -0.467 ± 0.14
9 | AUAAAGCAAUAUUACGCCCU | 0.347 ± 0.15 | 0.95 ± 0.18
10 | UCCGAGCAAUAUUACGAUAU | -1.5 ± 0.22 | -2.46 ± 0.41
11 | UUCAAGCAAUAUUACGAUAG | -1.81 ± 0.14 | -0.986 ± 0.17
12 | CGACAGCAAUAUUACGGUCU | -0.546 ± 0.039 | 0.187 ± 0.056
13 | CAACAGCAAUAUUACGAGUC | -3.58 ± 0.2 | -2.58 ± 0.26
14 | UCCCAGCAAUAUUACGACGG | -2.95 ± 0.15 | -2.15 ± 0.14
15 | CUGCAGCAAUAUUACGGUAC | -4.59 ± 0.24 | -1.81 ± 0.21
16 | AAGCAGCAAUAUUACGCGAC | -0.688 ± 0.22 | -1.95 ± 0.25
17 | UCUAAGCAAUAUUACGGAAA | -2.93 ± 0.28 | -1.9 ± 0.27
18 | UGCUAGCAAUAUUACGGCAC | -3.7 ± 0.42 | -2.19 ± 0.39
19 | ACUAAGCAAUAUUACGGGCA | -1.27 ± 0.089 | -0.405 ± 0.1
20 | ACGGAGCAAUAUUACGUGAG | -3.06 ± 0.28 | -1.15 ± 0.19
21 | GGACAGCAAUAUUACGGUUG | -1.41 ± 0.067 | -0.752 ± 0.083
22 | AAAGAGCAAUAUUACGUCUG | -3.55 ± 0.22 | -2.36 ± 0.2
23 | AACUAGCAAUAUUACGCUAC | -3.46 ± 0.22 | -1.34 ± 0.14
24 | AUAAAGCAAUAUUACGAGAA | -2.7 ± 0.19 | -1.85 ± 0.23
25 | CAGGAGCAAUAUUACGCGCG | -1.45 ± 0.14 | -0.0818 ± 0.14

Row | Sequence | self-splicing fitness (ln) (30 °C) | self-splicing fitness (ln) (37 °C)
26 | CUGCAGCAAUAUUACGUAUU | -4.27 ± 0.18 | -3.51 ± 0.19
27 | UGCCAGCAAUAUUACGCAAA | -2.41 ± 0.19 | -1.5 ± 0.17
28 | AGUCAGCAAUAUUACGCCGG | -2.86 ± 0.48 | –
29 | CACCAGCAAUAUUACGUACG | 0.0448 ± 0.04 | 0.848 ± 0.062
30 | GCUUAGCAAUAUUACGUUUA | -1.73 ± 0.13 | -1.17 ± 0.12
31 | CCUUAGCAAUAUUACGAUCG | -0.392 ± 0.07 | -0.134 ± 0.1
32 | CAUCAGCAAUAUUACGCUCU | -3.31 ± 0.19 | -1.66 ± 0.17
33 | ACUGAGCAAUAUUACGCCAA | -3.45 ± 0.29 | -2.74 ± 0.22
34 | GGGAAGCAAUAUUACGGACA | -0.34 ± 0.087 | -0.0303 ± 0.13
35 | AAACAGCAAUAUUACGCACG | -1.45 ± 0.099 | -0.888 ± 0.11
36 | AUGCAGCAAUAUUACGGAGG | -3.79 ± 0.2 | -2.07 ± 0.15
37 | GAAGAGCAAUAUUACGAGUA | -3.78 ± 0.37 | -2.75 ± 0.38
38 | UCUGAGCAAUAUUACGCCAA | – | -1.51 ± 0.32
39 | GGGAAGCAAUAUUACGGGGC | -2.85 ± 0.34 | –
40 | UAGAAGCAAUAUUACGAUUA | -0.441 ± 0.08 | -0.0749 ± 0.093
41 | GUCCAGCAAUAUUACGAUGU | -0.9 ± 0.07 | -0.235 ± 0.083
42 | GAAUAGCAAUAUUACGACCG | -1.03 ± 0.16 | -0.447 ± 0.2
43 | CUACAGCAAUAUUACGUGUU | -3.08 ± 0.16 | -2.94 ± 0.15
44 | AGACAGCAAUAUUACGGUCU | -3.78 ± 0.23 | -2.48 ± 0.25
45 | GGCUAGCAAUAUUACGUUUC | -0.818 ± 0.11 | -0.182 ± 0.12
46 | CACUAGCAAUAUUACGAGUG | -3.45 ± 0.2 | -2.73 ± 0.22
47 | CUACAGCAAUAUUACGCCUA | -2.46 ± 0.18 | -3.31 ± 0.28
48 | CUAGAGCAAUAUUACGCAGA | -2.47 ± 0.37 | -3.6 ± 0.33
49 | GCGCAGCAAUAUUACGCUGA | -1.16 ± 0.12 | -0.667 ± 0.1
50 | AGCAAGCAAUAUUACGGCCG | -0.219 ± 0.071 | -0.111 ± 0.094

Row | Sequence | self-splicing fitness (ln) (30 °C) | self-splicing fitness (ln) (37 °C)
51 | CACGAGCAAUAUUACGAAUA | -2.08 ± 0.12 | -2.23 ± 0.16
52 | UAUGAGCAAUAUUACGCGCU | -3.68 ± 0.31 | -2.64 ± 0.28
53 | CUUUAGCAAUAUUACGUAGU | -3.52 ± 0.2 | -2.2 ± 0.22
54 | AGUCAGCAAUAUUACGGGUA | -2.02 ± 0.15 | -1.54 ± 0.14
55 | CUGCAGCAAUAUUACGAGGU | -3.65 ± 0.14 | -3.53 ± 0.2
56 | UUGCAGCAAUAUUACGGUCA | 0.208 ± 0.12 | 0.556 ± 0.11
57 | UACCAGCAAUAUUACGAUAA | -0.622 ± 0.093 | -0.122 ± 0.1
58 | GUUAAGCAAUAUUACGAAUU | -1.72 ± 0.21 | -1.4 ± 0.24
59 | ACAGAGCAAUAUUACGUAUU | -3.66 ± 0.23 | -2.84 ± 0.27
60 | GUAUAGCAAUAUUACGGGGU | -4.08 ± 0.27 | -1.4 ± 0.14
61 | ACGCAGCAAUAUUACGAACG | -0.387 ± 0.076 | -0.234 ± 0.091
62 | CAAGAGCAAUAUUACGCGUA | -2.2 ± 0.27 | -1.95 ± 0.25
63 | GGUAAGCAAUAUUACGCGUU | -1.34 ± 0.091 | -0.615 ± 0.13
64 | GCGCAGCAAUAUUACGCAGC | – | -1.32 ± 0.33
65 | GCGGAGCAAUAUUACGGCGA | -1.5 ± 0.23 | -1.29 ± 0.28
66 | CAUAAGCAAUAUUACGAAAG | -1.13 ± 0.09 | -0.268 ± 0.12
67 | AGGGAGCAAUAUUACGCACG | -2.17 ± 0.49 | -0.794 ± 0.39
68 | GCCUAGCAAUAUUACGAGCC | -1.8 ± 0.15 | -1.67 ± 0.23
69 | UCCUAGCAAUAUUACGACAU | -3.634 ± 0.026 | -2.16 ± 0.037
70 | CAGGAGCAAUAUUACGGCGC | -3.61 ± 0.36 | -3.31 ± 0.16
71 | UAUUAGCAAUAUUACGUUGU | -3.93 ± 0.34 | -3.04 ± 0.4
72 | CGAUAGCAAUAUUACGCCAG | -1.35 ± 0.1 | -0.84 ± 0.15
73 | CCGAAGCAAUAUUACGUGUC | -3.49 ± 0.23 | -1.34 ± 0.16
74 | ACCUAGCAAUAUUACGACCG | -1.16 ± 0.13 | 0.144 ± 0.12
75 | AUUAAGCAAUAUUACGUUUA | -1.61 ± 0.14 | -1.54 ± 0.15

Row | Sequence | self-splicing fitness (ln) (30 °C) | self-splicing fitness (ln) (37 °C)
76 | UCAGAGCAAUAUUACGAAUC | -2.45 ± 0.42 | –
77 | GAUCAGCAAUAUUACGAGAU | -3 ± 0.15 | -1.55 ± 0.13
78 | GAGUAGCAAUAUUACGAGGU | -2.24 ± 0.35 | –
79 | GCCCAGCAAUAUUACGCACC | -0.112 ± 0.075 | 0.19 ± 0.097
80 | GCUAAGCAAUAUUACGACAG | -2.67 ± 0.17 | -2.51 ± 0.32
81 | ACAGAGCAAUAUUACGCUUC | -3.96 ± 0.24 | -2.16 ± 0.3
82 | UCGCAGCAAUAUUACGAUGA | -0.691 ± 0.072 | 0.0326 ± 0.081
83 | GUGCAGCAAUAUUACGGCCA | -0.211 ± 0.11 | -0.818 ± 0.14
84 | GAAAAGCAAUAUUACGAGUU | -1.15 ± 0.073 | 0.164 ± 0.094
85 | GCUAAGCAAUAUUACGUCCG | -1.53 ± 0.13 | -0.712 ± 0.15
86 | UUUUAGCAAUAUUACGGAGA | -1.93 ± 0.35 | -1.62 ± 0.27
87 | CAUCAGCAAUAUUACGCCGA | -2.57 ± 0.32 | -1.79 ± 0.31
88 | AUCUAGCAAUAUUACGUACC | -1.3 ± 0.091 | -0.395 ± 0.11
89 | CAAGAGCAAUAUUACGAUCG | -0.79 ± 0.071 | 0.562 ± 0.1
90 | CCACAGCAAUAUUACGGUGA | -0.943 ± 0.06 | -0.339 ± 0.062
91 | UCUUAGCAAUAUUACGUUAA | -2.98 ± 0.26 | -2.67 ± 0.38
92 | CAAUAGCAAUAUUACGUUAC | – | -3.23 ± 0.39
93 | GCUGAGCAAUAUUACGCGAU | -2.78 ± 0.17 | -2.59 ± 0.25
94 | GCAGAGCAAUAUUACGUGUU | -4.35 ± 0.3 | -2.42 ± 0.18
95 | ACUUAGCAAUAUUACGAAUC | -3.59 ± 0.23 | -0.386 ± 0.23
96 | ACCAAGCAAUAUUACGUAGC | -3.58 ± 0.13 | -2.44 ± 0.13
97 | UAUCAGCAAUAUUACGGUCG | -0.0229 ± 0.059 | 0.259 ± 0.066
